{
  "source": "IntAct's records for PubMed 20505668",
  "parents": {"B1": {"name": "Isocitrate dehydrogenase kinase/phosphatase (Escherichia coli (strain K12)), P11071 (parent)", "chain": "MPRGLELLIAQTILQGFDAQYGRFLEVTSGAQQRFEQADWHAVQQAMKNRIHLYDHHVGLVVEQLRCITNGQSTDAAFLLRVKEHYTRLLPDYPRFEIAESFFNSVYCRLFDHRSLTPERLFIFSSQPERRFRTIPRPLAKDFHPDHGWESLLMRVISDLPLRLRWQNKSRDIHYIIRHLTETLGTDNLAESHLQVANELFYRNKAAWLVGKLITPSGTLPFLLPIHQTDDGELFIDTCLTTTAEASIVFGFARSYFMVYAPLPAALVEWLREILPGKTTAELYMAIGCQKHAKTESYREYLVYLQGCNEQFIEAPGIRGMVMLVFTLPGFDRVFKVIKDRFAPQKEMSAAHVRACYQLVKEHDRVGRMADTQEFENFVLEKRHISPALMELLLQEAAEKITDLGEQIVIRHLYIERRMVPLNIWLEQVEGQQLRDAIEEYGNAIRQLAAANIFPGDMLFKNFGVTRHGRVVFYDYDEICYMTEVNFRDIPPPRYPEDELASEPWYSVSPGDVFPEEFRHWLCADPRIGPLFEEMHADLFRADYWRALQNRIREGHVEDVYAYRRRQRFSVRYGEMLF", "partner": "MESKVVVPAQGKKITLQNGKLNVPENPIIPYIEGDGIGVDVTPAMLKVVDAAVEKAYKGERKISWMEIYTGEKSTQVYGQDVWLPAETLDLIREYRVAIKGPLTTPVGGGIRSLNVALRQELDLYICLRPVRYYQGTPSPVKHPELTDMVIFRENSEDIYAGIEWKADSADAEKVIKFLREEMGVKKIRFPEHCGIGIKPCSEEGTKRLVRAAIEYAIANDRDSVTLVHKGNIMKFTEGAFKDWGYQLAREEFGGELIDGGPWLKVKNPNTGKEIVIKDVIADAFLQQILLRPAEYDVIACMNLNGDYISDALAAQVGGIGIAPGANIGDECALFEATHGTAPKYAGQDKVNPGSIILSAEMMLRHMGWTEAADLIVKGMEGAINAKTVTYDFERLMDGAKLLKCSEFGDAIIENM"}},
  "data": [
    {"variants_of": "B1", "details": "with idh_ecoli icd", "values": [
      {"variant": "MPRGLELLIAQTILQGFDAQYGRFLEVTSGAQQRFEQADWHAVQQAMKNRIHLYDHHVGLVVEQLRCITNGQSTDAAFLLRVKEHYTRLLPDYPRFEIAESFFNSVYCRLFDHRSLTPERLFIFSSQPERRFRTIPRPLAKDFHPDHGWESLLMRVISDLPLRLRWQNKSRDIHYIIRHLTETLGTDNLAESHLQVANELFYRNKAAWLVGKLITPSGTLPFLLPIHQTDDGELFIDTCLTTTAEASIVFGFARSYFMVYAPLPAALVEWLREILPGKTTAELYMAIGCQKHAKTESYREYLVYLQGCNEQFIEAPGIRGMVMLVFTLPGFDRVFKVIKDRFAPQKEMSAAHVRACYQLVKEHDRVGRMADTQEFENFVLEKRHISPALMELLLQEAAEKITDLGEQIVIRHLYIERRMVPLNIWLEQVEGQQLRDAIEEYGNAIRQLAAANIFPGDMLFKNFGVTRHGRVVFYAYDEICYMTEVNFRDIPPPRYPEDELASEPWYSVSPGDVFPEEFRHWLCADPRIGPLFEEMHADLFRADYWRALQNRIREGHVEDVYAYRRRQRFSVRYGEMLF", "note": "[D475A]", "effect of a mutation on the interaction": "disrupting interaction"},
      {"variant": "MPRGLELLIAQTILQGFDAQYGRFLEVTSGAQQRFEQADWHAVQQAMKNRIHLYDHHVGLVVEQLRCITNGQSTDAAFLLRVKEHYTRLLPDYPRFEIAESFFNSVYCRLFDHRSLTPERLFIFSSQPERRFRTIPRPLAKDFHPDHGWESLLMRVISDLPLRLRWQNKSRDIHYIIRHLTETLGTDNLAESHLQVANELFYRNKAAWLVGKLITPSGTLPFLLPIHQTDDGELFIDTCLTTTAEASIVFGFARSYFMVYAPLPAALVEWLREILPGKTTAELYMAIGCQKHAKTESYREYLVYLQGCNEQFIEAPGIRGMVMLVFTLPGFDRVFAVIKDRFAPQKEMSAAHVRACYQLVKEHDRVGRMADTQEFENFVLEKRHISPALMELLLQEAAEKITDLGEQIVIRHLYIERRMVPLNIWLEQVEGQQLRDAIEEYGNAIRQLAAANIFPGDMLFKNFGVTRHGRVVFYDYDEICYMTEVNFRDIPPPRYPEDELASEPWYSVSPGDVFPEEFRHWLCADPRIGPLFEEMHADLFRADYWRALQNRIREGHVEDVYAYRRRQRFSVRYGEMLF", "note": "[K336A]", "effect of a mutation on the interaction": "disrupting interaction"},
      {"variant": "MPRGLELLIAQTILQGFDAQYGRFLEVTSGAQQRFEQADWHAVQQAMKNRIHLYDHHVGLVVEQLRCITNGQSTDAAFLLRVKEHYTRLLPDYPRFEIAESFFNSVYCRLFDHRSLTPERLFIFSSQPERRFRTIPRPLAKDFHPDHGWESLLMRVISDLPLRLRWQNKSRDIHYIIRHLTETLGTDNLAESHLQVANELFYRNKAAWLVGKLITPSGTLPFLLPIHQTDDGELFIDTCLTTTAEASIVFGFARSYFMVYAPLPAALVEWLREILPGKTTAELYMAIGCQKHAKTESYREYLVYLQGCNEQFIEAPGIRGMVMLVFTLPGFDRVFKVIKDRFAPQKEMSAAHVRACYQLVKEHDRVGRMADTQEFENFVLEKRHISPALMELLLQEAAEKITDLGEQIVIRHLYIERRMVPLNIWLEQVEGQQLRDAIEEYGNAIRQLAAANIFPGDMLFKAFGVTRHGRVVFYDYDEICYMTEVNFRDIPPPRYPEDELASEPWYSVSPGDVFPEEFRHWLCADPRIGPLFEEMHADLFRADYWRALQNRIREGHVEDVYAYRRRQRFSVRYGEMLF", "note": "[N462A]", "effect of a mutation on the interaction": "disrupting interaction"},
      {"variant": "MPRGLELLIAQTILQGFDAQYGRFLEVTSGAQQRFEQADWHAVQQAMKNRIHLYDHHVGLVVEQLRCITNGQSTDAAFLLRVKEHYTRLLPDYPRFEIAESFFNSVYCRLFDHRSLTPERLFIFSSQPERRFRTIPRPLAKDFHPDHGWESLLMRVISDLPLRLRWQNKSRDIHYIIRHLTETLGTDNLAESHLQVANELFYRNKAAWLVGKLITPSGTLPFLLPIHQTDDGELFIDTCLTTTAEASIVFGFARSYFMVYAPLPAALVEWLREILPGKTTAELYMAIGCQKHAKTESYREYLVYLQGCNEQFIEAPGIRGMVMLVFTLPGFDRVFKVIKDRFAPQKEMSAAHVRACYQLVKEHDRVGRMADTQEFENFVLEKRHISPALMELLLQEAAEKITDLGEQIVIRHLYIERRMVPLNIWLEQVEGQQLRDAIEEYGNAIRQLAAANIFPGDMLFKNFGVTRHGRVVFYDYDEICYMTEVNFRDIPPPRYPKDKLASEPWYSVSPGDVFPEEFRHWLCADPRIGPLFEEMHADLFRADYWRALQNRIREGHVEDVYAYRRRQRFSVRYGEMLF", "note": "[E497K;E499K]", "effect of a mutation on the interaction": "disrupting interaction"}
    ]},
    {"variants_of": "B1", "details": "with idh_ecoli icd", "remark": "another data set of the same source", "values": [
      {"variant": "MPRGLELLIAQTILQGFDAQYGRFLEVTSGAQQRFEQADWHAVQQAMKNRIHLYDHHVGLVVEQLRCITNGQSTDAAFLLRVKEHYTRLLPDYPRFEIAESFFNSVYCRLFDHRSLTPERLFIFSSQPERRFRTIPRPLAKDFHPDHGWESLLMRVISDLPLRLRWQNKSRDIHYIIRHLTETLGTDNLAESHLQVANELFYRNKAAWLVGKLITPSGTLPFLLPIHQTDDGELFIDTCLTTTAEASIVFGFARSYFMVYAPLPAALVEWLREILPGKTTAELYMAIGCQKHAKTESYREYLVYLQGCNEQFIEAPGIRGMVMLVFTLPGFDRVFKVIKDRFAPQEEMSAAHVRACYQLVKEHDRVGRMADTQEFENFVLEKRHISPALMELLLQEAAEKITDLGEQIVIRHLYIERRMVPLNIWLEQVEGQQLRDAIEEYGNAIRQLAAANIFPGDMLFKNFGVTRHGRVVFYDYDEICYMTEVNFRDIPPPRYPEDELASEPWYSVSPGDVFPEEFRHWLCADPRIGPLFEEMHADLFRADYWRALQNRIREGHVEDVYAYRRRQRFSVRYGEMLF", "note": "[K346E]", "effect of a mutation on the interaction": "disrupting interaction"},
      {"variant": "MPRGLELLIAQTILQGFDAQYGRFLEVTSGAQQRFEQADWHAVQQAMKNRIHLYDHHVGLVVEQLRCITNGQSTDAAFLLRVKEHYTRLLPDYPRFEIAESFFNSVYCRLFDHRSLTPERLFIFSSQPERRFRTIPRPLAKDFHPDHGWESLLMRVISDLPLRLRWQNKSRDIHYIIRHLTETLGTDNLAESHLQVANELFYRNKAAWLVGKLITPSGTLPFLLPIHQTDDGELFIDTCLTTTAEASIVFGFARSYFMVYAPLPAALVEWLREILPGKTTAELYMAIGCQKHAKTESYREYLVYLQGCNEQFIEAPGIRGMVMLVFTLPGFDRVFKVIKDRFAPQKEMSAAHVRACYQLVKEHDRVGRMADTQEFENFVLEKRHISPALMELLLQEAAEKITDLGEQIVIRHLYIERRMVPLNIWLEQVEGQQLRDAIEEYGNAIRQLAAANIFPGDMLFKNFGVTRHGRVVFYDYAEICYMTEVNFRDIPPPRYPEDELASEPWYSVSPGDVFPEEFRHWLCADPRIGPLFEEMHADLFRADYWRALQNRIREGHVEDVYAYRRRQRFSVRYGEMLF", "note": "[D477A]", "effect of a mutation on the interaction": "disrupting interaction"}
    ]}
  ]
}
